Measured values taken from patent US20050154189A1.
Each block holds one binder with its values, some of them ahead of it.

Target: Soluble CD28-Ig (human), P10747
Assay: two-colour FACS profile on transfected cells; score of preference for CD28-Ig over CTLA-4-Ig vs WT hB7-1

- Binding Score: 1
B1: Round 2 CD28A4-9 (ligand)
chain: ITPKSVTKRVKETVMLSCDYNTSTEKLTSLRIYWQKDSKMVLAILPGKVQVWPEYKNRTITDMNDNPRIVILALRLSDSGTYTCVIQKPVLKGAYKLEHLTSVRLMIRADFPVPTINDLGNPSPNIRRLICSTSGGFPRPHLYWLENGEELNATNTTVSQDPETKLYMISSELDFNVTNNHSIVCLIKYGELSVSQIFPWSKPKQEPPIDQLPFWVIIPVSGALVLTAVVLYCPACRHVARWKRTRRNEETVGTERLSPIYLGSAQSRAEVPSLSX
modifications: not fully specified; X: residue not identified in the source; ends and bridges not checked

- Binding Score: 1
B2: Round 2 CD28A12-5 (ligand)
chain: ITPKSVTKRVKETVMLSCDYNTSTEELTSLRIYWRKDSKMXLAILPGKVQVWPEYKNRTITDMNDNLRIVILALRLSDSGTYTCVIQKPDLKGAYKLEHLTSVRLMIRADFPVPTINDLGNPSPNIRRLICSTSGGFPRPHLYWLENGEELNATNTTVSQDPGTELYMISSELDFNVTNNHSIVCLIKYGELLVSQIFPWSKPKQEPPIDQLPFWVIIPVSGALVLTAVVLYCLACRHVARWKRTRRNEETVGTERLSPIYLGSAQSSG
modifications: not fully specified; X: residue not identified in the source; ends and bridges not checked; also: glycosylated, sites not given here
